The term stoichiometry N denotes a count of units in the complex or per binding partner.

This experiment deals with EstN7, cold active family IV (hormone sensitive lipase family) esterase from Bacillus cohnii strain N1 (Bacillus cohnii strain N1). Nature of the experiment: SEC; size exclusion chromatography of purified EstN7 in solution (supplementary figure S1). In general terms: Size exclusion chromatography separates by hydrodynamic size, large species first.

On to “EstN7, cold active family IV (hormone sensitive lipase family) esterase from Bacillus cohnii strain N1 (enzyme)”, for which the stoichiometry N came out at 2.

The values above are taken from paper PMC8633780.
